Assay [1] addresses adenovirus E1B-55 kDa protein (Ad5) (UniProt P03243). The assay can be described thus: cell-based or functional assay.
Assay [2] addresses T1, adenovirus E1B-55 kDa protein (Ad5, UniProt P03243 1-496).
T1 sequence: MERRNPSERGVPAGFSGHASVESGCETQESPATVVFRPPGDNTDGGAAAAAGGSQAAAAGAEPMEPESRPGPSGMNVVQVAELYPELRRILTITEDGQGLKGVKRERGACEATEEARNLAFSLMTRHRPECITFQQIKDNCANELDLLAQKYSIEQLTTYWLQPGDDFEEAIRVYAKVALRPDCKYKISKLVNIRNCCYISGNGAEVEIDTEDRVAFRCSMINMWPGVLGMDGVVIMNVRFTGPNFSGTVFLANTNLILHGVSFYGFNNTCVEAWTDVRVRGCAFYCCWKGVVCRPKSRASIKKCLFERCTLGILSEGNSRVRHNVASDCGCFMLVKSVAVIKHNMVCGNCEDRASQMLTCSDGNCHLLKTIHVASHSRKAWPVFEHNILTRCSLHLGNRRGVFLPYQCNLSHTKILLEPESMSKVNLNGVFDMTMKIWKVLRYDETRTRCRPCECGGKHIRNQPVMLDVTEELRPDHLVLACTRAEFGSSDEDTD
Put plainly: cell-based or functional assay.

In the case of “E4orf6 variant R251E (from UniProt P03239 1-294)”, in assay [1], the cells with predominantly nuclear E1B-55 kDa protein is 85 % of cells.
“E4orf6 variant R244E (from UniProt P03239 1-294)”: in assay [1], the cells with predominantly nuclear E1B-55 kDa protein is 85 % of cells and the value for nuclear E1B-55 kDa protein retention was 91%.
As to “E4orf6 variant R248E (from UniProt P03239 1-294)”, in assay [1], the cells with predominantly nuclear E1B-55 kDa protein is 85 % of cells.
Regarding “E4orf6 variant R240,244,251A (from UniProt P03239 1-294)”, in assay [1], the HeLa cells in which the E1B-55 kDa protein was retained is > 62 % of cells, the cells in which the E1B-55 kDa protein was relocalized to the nucleus is 60 % of cells and the value for nuclear E1B-55 kDa protein retention was determined as 62%.
Regarding “E4orf6 variant R251A (from UniProt P03239 1-294)”, in assay [1], the HeLa cells in which the E1B-55 kDa protein was retained was > 62 % of cells and the value for nuclear E1B-55 kDa protein retention is 99%.
As for “E4orf6 variant R240E (from UniProt P03239 1-294)”, in assay [1], the cells with predominantly cytoplasmic E1B-55 kDa protein is 46 % of cells, the cells with predominantly nuclear E1B-55 kDa protein was 55 % of cells and the cells with uniform distribution of the E1B-55 kDa protein is 4 % of cells.
On to “E4orf6 variant R240A (from UniProt P03239 1-294)”, for which, in assay [1], the cells with the E1B-55 kDa protein retained in the nucleus was 90 % of cells.
Still for that read-out and setting: then “E4orf6 variant R240,251A (from UniProt P03239 1-294)”, with 70 % of cells.
For “E4orf6 variant R248,251A (from UniProt P03239 1-294)”, in assay [1], the HeLa cells in which the E1B-55 kDa protein was retained was > 62 % of cells, the cells with the E1B-55 kDa protein retained in the nucleus is 82 % of cells and the value for nuclear E1B-55 kDa protein retention was determined as 80%.

B1: wild-type adenovirus E4orf6 protein (other)
chain: MTTSGVPFGMTLRPTRSRLSRRTPYSRDRLPPFETETRATILEDHPLLPECNTLTMHNVSYVRGLPCSVGFTLIQEWVVPWDMVLTREELVILRKCMHVCLCCANIDIMTSMMIHGYESWALHCHCSSPGSLQCIAGGQVLASWFRMVVDGAMFNQRFIWYREVVNYNMPKEVMFMSSVFMRGRHLIYLRLWYDGHVGSVVPAMSFGYSALHCGILNNIVVLCCSYCADLSEIRVRCCARRTRRLMLRAVRIIAEETTAMLYSCRTERRRQQFIRALLQHHRPILMHDYDSTPM
For B1, in assay [2], the “value for nuclear E1B-55 kDa protein retention” value (shortened to “value”) came to 100%.

B2: E4orf6 variant R241A (other)
chain: MTTSGVPFGMTLRPTRSRLSRRTPYSRDRLPPFETETRATILEDHPLLPECNTLTMHNVSYVRGLPCSVGFTLIQEWVVPWDMVLTREELVILRKCMHVCLCCANIDIMTSMMIHGYESWALHCHCSSPGSLQCIAGGQVLASWFRMVVDGAMFNQRFIWYREVVNYNMPKEVMFMSSVFMRGRHLIYLRLWYDGHVGSVVPAMSFGYSALHCGILNNIVVLCCSYCADLSEIRVRCCARATRRLMLRAVRIIAEETTAMLYSCRTERRRQQFIRALLQHHRPILMHDYDSTPM
For B2, in assay [2], the “value” value worked out at 72%.

B3: E4orf6 variant R241E (other)
chain: MTTSGVPFGMTLRPTRSRLSRRTPYSRDRLPPFETETRATILEDHPLLPECNTLTMHNVSYVRGLPCSVGFTLIQEWVVPWDMVLTREELVILRKCMHVCLCCANIDIMTSMMIHGYESWALHCHCSSPGSLQCIAGGQVLASWFRMVVDGAMFNQRFIWYREVVNYNMPKEVMFMSSVFMRGRHLIYLRLWYDGHVGSVVPAMSFGYSALHCGILNNIVVLCCSYCADLSEIRVRCCARETRRLMLRAVRIIAEETTAMLYSCRTERRRQQFIRALLQHHRPILMHDYDSTPM
As for B3, the “value” value in assay [2] worked out at 0.8%.

Source of the values: patent US6844192 (WAKE FOREST UNIVERSITY, dated 2005).
